± gives the standard deviation of the averaged measurements.
The sequences below were run on Saccharomyces cerevisiae (assay: protein stability index of tFT-peptide fusion (C-terminal peptide) (PSI (0-1 scale)); higher = more stable (slower turnover)). Settings: genetic background: wild type; temperature: 30 C.
Protocol: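 Multiplexed protein stability (MPS) profiling in S. cerevisiae. Random 12-aa peptides (tFT-X12 library) are fused to the C-terminus of a sfGFP-mCherry tandem fluorescent timer, after mCherry and a GGGS linker. Cells are FACS-sorted into 8 mCherry/sfGFP bins and deep-sequenced. The protein stability index (PSI) is the read-weighted bin average, scaled from 0 (unstable) to 1 (stable). Only peptides with >10 reads are reported; cells were grown at 30 °C in SC-His with glucose.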
Sequence EARLGVGRCGTG has a protein stability index of 0.67 ± 0.0098.
PLPPPGPLPSPP showed a protein stability index of 0.736 ± 0.043.
In the case of PGPLISAVPLPF, the protein stability index is reported as 0.733 ± 0.064.
KLILGGSRGIMD was tested, and the protein stability index was 0.646 ± 0.014.
With LLVMRRHRFLRL the protein stability index was 0.624 ± 0.051.
Work on GGGGFGFGWSMV yielded a protein stability index of 0.709 ± 0.059.
VGLGVLWVMGKV gave a protein stability index of 0.667 ± 0.082.
LRPPLRPRPIPL was tested, and the protein stability index was 0.6983 ± 0.0036.
WGGSGGREPGGS showed a protein stability index of 0.753 ± 0.066.
DLRSQGWVALFH gave a protein stability index of 0.663 ± 0.04.
RHSREPRASMTR gave a protein stability index of 0.641 ± 0.072.
With VPLPLVPCARIY the protein stability index was 0.627 ± 0.0093.
PLPPPPPALPLP was tested, and the protein stability index was 0.683 ± 0.037.
With PLPFPLLPPPPH the protein stability index was 0.705 ± 0.013.
Sequence RSSIGNLCCRLL has a protein stability index of 0.6884 ± 0.0034.
With RGTDSRERIKRR the protein stability index was 0.721 ± 0.06.
GVTGGWVVNRGV gave a protein stability index of 0.7054 ± 0.007.
With SPTPSLPFPALF the protein stability index was 0.737 ± 0.097.
VPSSCFLLDLPP showed a protein stability index of 0.648 ± 0.047.
With GTRQLGRTEPGE the protein stability index was 0.695 ± 0.038.
VMAVARIEVKMR showed a protein stability index of 0.587 ± 0.024.
VGESGEGVVMGE was tested, and the protein stability index was 0.677 ± 0.08.
PPRPRVLPYPPL showed a protein stability index of 0.746 ± 0.028.
In the case of ELKVVVTPLVPS, the protein stability index is reported as 0.588 ± 0.053.
In the case of RPRVCFPHIAGT, the protein stability index is reported as 0.777 ± 0.11.
PPLLPPTPPLSA was tested, and the protein stability index was 0.625 ± 0.018.
Sequence CRAGSVGGIRGR has a protein stability index of 0.693 ± 0.015.
For ADQAPVLTVWLP, the protein stability index was 0.669 ± 0.023.
Work on NKEIKKIRIKKE yielded a protein stability index of 0.664 ± 0.076.
PVSNVFDLTGMT showed a protein stability index of 0.683 ± 0.021.
For SLISRAFYSFSP, the protein stability index was 0.699 ± 0.04.
With RKGKKNKKPKKQ the protein stability index was 0.612 ± 0.02.
APLTYFKPPTPT gave a protein stability index of 0.666 ± 0.11.
For AGCGGRCEAGDR, the protein stability index was 0.67 ± 0.011.
Work on SPLETLLCTPSI yielded a protein stability index of 0.675 ± 0.019.
DCRATNTTWGLS gave a protein stability index of 0.697 ± 0.18.
Sequence PPPPIRRPASHL has a protein stability index of 0.76 ± 0.058.
For SALRGTDMREEV, the protein stability index was 0.632 ± 0.023.
With PPPPYARHTALI the protein stability index was 0.691 ± 0.032.
In the case of RDGKRHSSQWRG, the protein stability index is reported as 0.659 ± 0.037.
For SAPLRHTSSSPS, the protein stability index was 0.697 ± 0.043.
Sequence YPPCSPGPLAPS has a protein stability index of 0.672 ± 0.026.
SDIHSSMTSGSF showed a protein stability index of 0.669 ± 0.014.
With QKKKKKNTKKKL the protein stability index was 0.701 ± 0.054.
For CLWCCFTDCCDT, the protein stability index was 0.762 ± 0.011.
Sequence WAGVTLRLRSAV has a protein stability index of 0.682 ± 0.055.
With KKKNKKKQKEEK the protein stability index was 0.693 ± 0.012.
With DRSRATRSPHIN the protein stability index was 0.703 ± 0.023.
Sequence KKNKKPKKQNNK has a protein stability index of 0.681 ± 0.063.
Work on RARGGGAEPGRN yielded a protein stability index of 0.685 ± 0.027.
With PPYPPETPPVHP the protein stability index was 0.724 ± 0.037.
PPATTPICSTPS gave a protein stability index of 0.681 ± 0.017.
NVLIASGIEVKK showed a protein stability index of 0.629 ± 0.0099.
Sequence YINVEPRITKNT has a protein stability index of 0.709 ± 0.0085.
APPPAAPALSPR was tested, and the protein stability index was 0.718 ± 0.096.
Sequence YTTVRGETRSQL has a protein stability index of 0.727 ± 0.017.
In the case of TTSPRNMIIYYR, the protein stability index is reported as 0.627 ± 0.037.
In the case of CPRAPKTPISGI, the protein stability index is reported as 0.635 ± 0.049.
SRTAFNRGTTRD showed a protein stability index of 0.681 ± 0.044.
With PPPEVDLRPCHC the protein stability index was 0.688 ± 0.055.
For LAPLALPLPPPT, the protein stability index was 0.832 ± 0.18.
Sequence AGFGVGALSRSG has a protein stability index of 0.673 ± 0.041.
Sequence VVWKRALWGEGL has a protein stability index of 0.791 ± 0.073.
Work on YPSTESPAGLAL yielded a protein stability index of 0.726 ± 0.025.
Sequence PPPPVPPPPSPL has a protein stability index of 0.6974 ± 0.0036.
In the case of PLPFPSTPPPPD, the protein stability index is reported as 0.691 ± 0.031.
For RVVGGGGEAWRE, the protein stability index was 0.73 ± 0.033.
SVVGGVVVELEG was tested, and the protein stability index was 0.65 ± 0.0096.
For PPRASPFPTPPP, the protein stability index was 0.579 ± 0.04.
Work on GSPAVACSSPFF yielded a protein stability index of 0.754 ± 0.073.
In the case of PYTPRSTSPPPL, the protein stability index is reported as 0.7702 ± 0.0066.
Sequence LIPALPPPLPPP has a protein stability index of 0.673 ± 0.0056.
With VFSAVIFFDCVQ the protein stability index was 0.629 ± 0.014.

From the supplement of paper PMC10724198
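Note: PSI is a weighted mean of sequencing reads over stability bins, variants kept only with over 10 reads, mCherry proximal and sfGFP distal, peptide attached via GGGS linker.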
